Our source for the Kd values is paper PMC8368996 (2021).

Read-outs that look alike come from different tables or passages of the source. Ends that are not written are not given here. Oregon Green 488 maleimide = Oregon Green 488 maleimide fluorescent label attached to the N-terminal cysteine

As a reminder, the Kd is the free concentration of one partner at which half of the binding sites on the other are occupied at equilibrium, for simple one-to-one binding.

B1: NEDD4L WW4 domain (domain or fragment)
chain: GPLPPGWEERIHLDGRTFYIDHNSKITQWEDPRL
B2: NEDD4L WW1 domain (domain or fragment)
chain: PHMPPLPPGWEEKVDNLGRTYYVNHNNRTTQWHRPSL
B3: NEDD4L WW2 domain (domain or fragment)
chain: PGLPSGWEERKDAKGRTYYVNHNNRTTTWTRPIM
B4: NEDD4L WW3 domain (domain or fragment)
chain: KVTQSFLPPGWEMRIAPNGRPFFIDHNTKTTTWEDPRLKFPVHMRSK

Holding throughout (experiment): FP
The target in the experiment “NEDD4L WW4 domain” is B1.
For the experiment “NEDD4L WW1 domain”, the target named is B2.
For experiment [1], the target named is B4.
The experiment “NEDD4L WW2 domain” addresses B3.
Experiment [2] has as its target PPxYc.
Experiment [3] deals with PPxYc. The source holds these as a separate data set.
Target sequence in this assay (Q96PU5 other isoform, or with tags, fused parts or gaps): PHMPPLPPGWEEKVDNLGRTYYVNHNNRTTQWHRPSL
Experiment [4] addresses PPxYc. This is another data set of the same source.
Target sequence in this assay (Q96PU5 385-418): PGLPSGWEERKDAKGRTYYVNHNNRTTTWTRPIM
The target of experiment [5] is B4. The source holds these as a separate data set.
Experiment [6] addresses PPxYc. The source holds these as a separate data set.

Sequence of NEDD4L WW1 domain (chain, as listed by the source): as the sequence (Q96PU5 other isoform, or with tags, fused parts or gaps) above
Sequence of NEDD4L WW2 domain (Q96PU5 385-418): as the sequence (Q96PU5 385-418) above

As for C(Oregon Green 488 maleimide)LMRYQHPPEYGAARP [AMOT PPxY3 peptide (residues 278-292), Oregon Green 488-labelled], the Kd was more than 400 µM in the experiment with NEDD4L WW4 domain, more than 400 µM with NEDD4L WW1 domain, 100 µM with NEDD4L WW3 domain [1] and 280 µM in the experiment with NEDD4L WW2 domain.

With C(Oregon Green 488 maleimide)MEHRGPPPEYPFKGM [AMOT PPxY2 peptide (residues 233-247), Oregon Green 488-labelled], the Kd with NEDD4L WW4 domain came to 210 µM; in the experiment with NEDD4L WW1 domain it was 49 µM; with NEDD4L WW3 domain [1] it was 28 µM; in the experiment with NEDD4L WW2 domain, 30 µM.

Turning to B1, the Kd in the experiment with PPxYc [2] is more than 400 µM.

In turn, B2 yielded a Kd with PPxYc [3] of more than 400 µM.

B3: in the experiment with PPxYc [4], the Kd is more than 800 µM.

Take C(Oregon Green 488 maleimide)MEHRGPLPEYPFKGM [AMOT PPxY2 P239L mutant peptide]: the Kd in the experiment with NEDD4L WW3 domain [5] was 78 µM.

As for C(Oregon Green 488 maleimide)MQNNEEPPTYEEAKV [AMOT PPxY1 L106P mutant peptide], the Kd with NEDD4L WW3 domain [5] worked out at 6.7 µM.

For C(Oregon Green 488 maleimide)MQNNEELPTYEEAKV [AMOT PPxY1 peptide (residues 100-114), Oregon Green 488-labelled], the Kd with NEDD4L WW3 domain [5] turned out to be 6.3 µM; with NEDD4L WW4 domain, 60 µM; in the experiment with NEDD4L WW1 domain, 180 µM; with NEDD4L WW2 domain it was 34 µM.

As for B4, the Kd with PPxYc [6] was more than 250 µM.
